Results taken from article PMC10075959.

Legend:
[1] = target: 229E-related bat coronavirus N-protein LRS peptide (comprising the predicted helix) (229E-related bat coronavirus); assay: AUC
[2] = target: MERS N-protein LRS peptide (comprising the predicted helix) (MERS); assay: AUC
[3] = target: SARS-CoV N-protein LRS peptide (comprising the predicted helix) (SARS-CoV); assay: AUC
[4] = target: human coronavirus NL63 N-protein LRS peptide (comprising the predicted helix) (human coronavirus NL63); assay: AUC; sedimentation velocity of peptides at different concentrations, 20°C, 55,000 rpm, working buffer (10.1 mM Na2PO4, 1.8 mM KH2PO4, 2.7 mM KCl, 10 mM NaCl, pH 7.40), also with 10% TFE; c(s) distributions; monomer to oligomer (trimer)
[5] = target: murine hepatitis virus (MHV) N-protein LRS peptide (comprising the predicted helix) (murine hepatitis virus); assay: as above

Q: “229E-related bat coronavirus N-protein LRS peptide (comprising the predicted helix)” was tested. Which stoichiometry N [1] did it give?
A: Its stoichiometry N is 3.

Q: “MERS N-protein LRS peptide (comprising the predicted helix)” was tested. Which stoichiometry N [2] did it give?
A: Its stoichiometry N is 3.

Q: “SARS-CoV N-protein LRS peptide (comprising the predicted helix)” was tested. Which stoichiometry N [3] did it give?
A: Its stoichiometry N is 3.

Q: How did the stoichiometry N [4] turn out when “human coronavirus NL63 N-protein LRS peptide (comprising the predicted helix)” was run?
A: Its stoichiometry N is 3.

Q: “murine hepatitis virus (MHV) N-protein LRS peptide (comprising the predicted helix)” was tested. Which stoichiometry N [5] did it give?
A: The stoichiometry N was 3.
